# Data as given in PMC8595303, “Dramatic activation of an antibody by a single amino acid change in framework” (Scientific Reports, 2021).
# B1: h4A11.v2.1 (antibody, V domains shown)
# VH: EQQLVESGGGLVQPGGSLSLSCAVSGFSLSSYTVNWVRQAPGKGLEWIGYISYGGSAYYASWANGRFTISKDSAKNSVYLQMNSLRAEDTAVYFCARHMQVGGAPTGSMAAFDPWGPGTLVTVSS
# VL: DAQLTQSPSSLSASVGDRVTITCQSSQSVYNNNYLSWFQQKPGKPPKLLIYGASTLTSGVPSRFSGSGSGTDFTLTISSLQPEDFATYYCAGGYSGSSDKYAFGGGTKVEIK
# notes: as the VH of m7 (h4A11.v2) with the stated change; numbers count on: Kabat numbering of the heavy chain; as the VL of m7 (h4A11.v2); human IgG1; also called v2.1_R19S; source: Expi293F, transient, purified (Protein A, SEC)
# B2: h4A11.v2.3 (antibody, V domains shown)
# VH: EQQLVESGGGLVQPGGSLRLSCAVSGFSLSSYTVNWVRQAPGKGLEWIGYISYGGSAYYASWANGRFTISKDSAKNSVYLAMNSLRAEDTAVYFCARHMQVGGAPTGSMAAFDPWGPGTLVTVSS
# VL: DAQLTQSPSSLSASVGDRVTITCQSSQSVYNNNYLSWFQQKPGKPPKLLIYGASTLTSGVPSRFSGSGSGTDFTLTISSLQPEDFATYYCAGGYSGSSDKYAFGGGTKVEIK
# notes: as the VH of m7 (h4A11.v2) with the stated change; numbers count on: Kabat numbering of the heavy chain; as the VL of m7 (h4A11.v2); human IgG1; also called v2.3_Q81A; source: Expi293F, transient, purified (Protein A, SEC)
# B3: h4A11.v2.6 (antibody, V domains shown)
# VH: EQQLVESGGGLVQPGGSLSLSCAVSGFSLSSYTVNWVRQAPGKGLEWIGYISYGGSAYYASWANGRFTISKDSAKNSVSLSMNSLRAEDTAVYFCARHMQVGGAPTGSMAAFDPWGPGTLVTVSS
# VL: DAQLTQSPSSLSASVGDRVTITCQSSQSVYNNNYLSWFQQKPGKPPKLLIYGASTLTSGVPSRFSGSGSGTDFTLTISSLQPEDFATYYCAGGYSGSSDKYAFGGGTKVEIK
# notes: as the VH of m7 (h4A11.v2) with the stated changes; numbers count on: Kabat numbering of the heavy chain; as the VL of m7 (h4A11.v2); human IgG1; also called v2.6_ R19S, Y79S, Q81S; source: Expi293F, transient, purified (Protein A, SEC)
# B4: h4A11.v2.4 (antibody, V domains shown)
# VH: EQQLVESGGGLVQPGGSLSLSCAVSGFSLSSYTVNWVRQAPGKGLEWIGYISYGGSAYYASWANGRFTISKDSAKNSVSLQMNSLRAEDTAVYFCARHMQVGGAPTGSMAAFDPWGPGTLVTVSS
# VL: DAQLTQSPSSLSASVGDRVTITCQSSQSVYNNNYLSWFQQKPGKPPKLLIYGASTLTSGVPSRFSGSGSGTDFTLTISSLQPEDFATYYCAGGYSGSSDKYAFGGGTKVEIK
# notes: as the VH of m7 (h4A11.v2) with the stated changes; numbers count on: Kabat numbering of the heavy chain; as the VL of m7 (h4A11.v2); human IgG1; also called v2.4_ R19S, Y79S; source: Expi293F, transient, purified (Protein A, SEC)
# B5: h4A11.v2.2 (antibody, V domains shown)
# VH: EQQLVESGGGLVQPGGSLRLSCAVSGFSLSSYTVNWVRQAPGKGLEWIGYISYGGSAYYASWANGRFTISKDSAKNSVYLNMNSLRAEDTAVYFCARHMQVGGAPTGSMAAFDPWGPGTLVTVSS
# VL: DAQLTQSPSSLSASVGDRVTITCQSSQSVYNNNYLSWFQQKPGKPPKLLIYGASTLTSGVPSRFSGSGSGTDFTLTISSLQPEDFATYYCAGGYSGSSDKYAFGGGTKVEIK
# notes: as the VH of m7 (h4A11.v2) with the stated change; numbers count on: Kabat numbering of the heavy chain; as the VL of m7 (h4A11.v2); human IgG1; also called v2.2_Q81N; source: Expi293F, transient, purified (Protein A, SEC)
# B6: h4A11.v2.5 (antibody, V domains shown)
# VH: EQQLVESGGGLVQPGGSLSLSCAVSGFSLSSYTVNWVRQAPGKGLEWIGYISYGGSAYYASWANGRFTISKDSAKNSVYLSMNSLRAEDTAVYFCARHMQVGGAPTGSMAAFDPWGPGTLVTVSS
# VL: DAQLTQSPSSLSASVGDRVTITCQSSQSVYNNNYLSWFQQKPGKPPKLLIYGASTLTSGVPSRFSGSGSGTDFTLTISSLQPEDFATYYCAGGYSGSSDKYAFGGGTKVEIK
# notes: as the VH of m7 (h4A11.v2) with the stated changes; numbers count on: Kabat numbering of the heavy chain; as the VL of m7 (h4A11.v2); human IgG1; also called v2.5_ R19S, Q81S; source: Expi293F, transient, purified (Protein A, SEC)
# B7: h4A11.v7.1 (antibody, V domains shown)
# VH: EQQLQESGPGLVKPSETLRLTCTVTGFSLSSYTVNWVRQPAGKGLEWIGYISYGGSAYYASWANGRFTISKDSSKNQVYLKLSSVTAADTAVYFCARHMQVGGAPTGSMAAFDPWGPGTLVTVSS
# VL: EAVLTQSPGTLSLSPGERATLSCQSSQSVYNNNYLSWFQQKPGQPPRLLIYGASTLTSGVPDRFSGSGSGTDFTLTISRLEPEDFAVYYCAGGYSGSSDKYAFGGGTKVEIK
# notes: as the VH of m12 (h4A11.v7); numbers count on: Kabat numbering of the heavy chain; as the VL of m12 (h4A11.v7); human IgG1; also called v7.1_S19R, S79Y; source: Expi293F, transient, purified (Protein A, SEC)
# B8: h4A11.v7.5 (antibody, V domains shown)
# VH: EQQLQESGPGLVKPSETLRLTCTVTGFSLSSYTVNWVRQPAGKGLEWIGYISYGGSAYYASWANGRFTISKDSSKNQVWLQLSSVTAADTAVYFCARHMQVGGAPTGSMAAFDPWGPGTLVTVSS
# VL: EAVLTQSPGTLSLSPGERATLSCQSSQSVYNNNYLSWFQQKPGQPPRLLIYGASTLTSGVPDRFSGSGSGTDFTLTISRLEPEDFAVYYCAGGYSGSSDKYAFGGGTKVEIK
# notes: as the VH of m12 (h4A11.v7); numbers count on: Kabat numbering of the heavy chain; as the VL of m12 (h4A11.v7); human IgG1; also called v7.5_S19R, S79W, K81Q; source: Expi293F, transient, purified (Protein A, SEC)
# B9: h4A11.v7.6 (antibody, V domains shown)
# VH: EQQLQESGPGLVKPSETLRLTCTVTGFSLSSYTVNWVRQPAGKGLEWIGYISYGGSAYYASWANGRFTISKDSSKNQVWLRLSSVTAADTAVYFCARHMQVGGAPTGSMAAFDPWGPGTLVTVSS
# VL: EAVLTQSPGTLSLSPGERATLSCQSSQSVYNNNYLSWFQQKPGQPPRLLIYGASTLTSGVPDRFSGSGSGTDFTLTISRLEPEDFAVYYCAGGYSGSSDKYAFGGGTKVEIK
# notes: as the VH of m12 (h4A11.v7); numbers count on: Kabat numbering of the heavy chain; as the VL of m12 (h4A11.v7); human IgG1; also called v7.6_S19R, S79W, K81R; source: Expi293F, transient, purified (Protein A, SEC)
# B10: h4A11.v7.2 (antibody, V domains shown)
# VH: EQQLQESGPGLVKPSETLRLTCTVTGFSLSSYTVNWVRQPAGKGLEWIGYISYGGSAYYASWANGRFTISKDSSKNQVWLKLSSVTAADTAVYFCARHMQVGGAPTGSMAAFDPWGPGTLVTVSS
# VL: EAVLTQSPGTLSLSPGERATLSCQSSQSVYNNNYLSWFQQKPGQPPRLLIYGASTLTSGVPDRFSGSGSGTDFTLTISRLEPEDFAVYYCAGGYSGSSDKYAFGGGTKVEIK
# notes: as the VH of m12 (h4A11.v7); numbers count on: Kabat numbering of the heavy chain; as the VL of m12 (h4A11.v7); human IgG1; also called v7.2_S19R, S79W; source: Expi293F, transient, purified (Protein A, SEC)
# B11: h4A11.v7.4 (antibody, V domains shown)
# VH: EQQLQESGPGLVKPSETLRLTCTVTGFSLSSYTVNWVRQPAGKGLEWIGYISYGGSAYYASWANGRFTISKDSSKNQVYLRLSSVTAADTAVYFCARHMQVGGAPTGSMAAFDPWGPGTLVTVSS
# VL: EAVLTQSPGTLSLSPGERATLSCQSSQSVYNNNYLSWFQQKPGQPPRLLIYGASTLTSGVPDRFSGSGSGTDFTLTISRLEPEDFAVYYCAGGYSGSSDKYAFGGGTKVEIK
# notes: as the VH of m12 (h4A11.v7); numbers count on: Kabat numbering of the heavy chain; as the VL of m12 (h4A11.v7); human IgG1; also called v7.4_S19R, S79Y, K81R; source: Expi293F, transient, purified (Protein A, SEC)
# B12: h4A11.v7.3 (antibody, V domains shown)
# VH: EQQLQESGPGLVKPSETLRLTCTVTGFSLSSYTVNWVRQPAGKGLEWIGYISYGGSAYYASWANGRFTISKDSSKNQVYLQLSSVTAADTAVYFCARHMQVGGAPTGSMAAFDPWGPGTLVTVSS
# VL: EAVLTQSPGTLSLSPGERATLSCQSSQSVYNNNYLSWFQQKPGQPPRLLIYGASTLTSGVPDRFSGSGSGTDFTLTISRLEPEDFAVYYCAGGYSGSSDKYAFGGGTKVEIK
# notes: as the VH of m12 (h4A11.v7); numbers count on: Kabat numbering of the heavy chain; as the VL of m12 (h4A11.v7); human IgG1; also called v7.3_S19R, S79Y, K81Q; source: Expi293F, transient, purified (Protein A, SEC)
# What was measured:
# [1] = biological target: T1, human mature TGFβ2 (PeproTech) (Homo sapiens, UniProt P61812); experiment: cell-based or functional assay
# T1 sequence (P61812 303-414): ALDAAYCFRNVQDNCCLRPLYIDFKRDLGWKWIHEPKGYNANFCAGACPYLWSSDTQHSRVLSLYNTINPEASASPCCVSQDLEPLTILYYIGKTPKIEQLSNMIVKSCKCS
# human mature TGFβ3 [2] = biological target: T2, human mature TGFβ3 (Homo sapiens, UniProt P10600); experiment: cell-based or functional assay
# T2 sequence (P10600 301-412): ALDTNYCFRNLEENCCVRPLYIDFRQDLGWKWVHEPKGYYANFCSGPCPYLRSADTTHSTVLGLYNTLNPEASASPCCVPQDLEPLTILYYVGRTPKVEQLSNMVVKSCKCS
# human mature TGFβ1 = biological target: T3, human mature TGFβ1 (Homo sapiens, UniProt P01137); experiment: SPR; Biacore T200; antibody captured on a Protein A sensor chip (about 90 RU); mature TGFβ isoform injected, five-fold dilutions 0.008 nM to 5 nM; HBS-EP pH 7.4, 150 mM NaCl; 37 °C; 100 μl/min; 3 min association, 60 min dissociation; one-to-one Langmuir model, global fit; details: both partners purified
# T3 construct: Transforming Growth Factor-beta 1, human, mature form (cut from the precursor); also called TGFb1; source: bought: PeproTech
# T3 sequence (P01137 279-390): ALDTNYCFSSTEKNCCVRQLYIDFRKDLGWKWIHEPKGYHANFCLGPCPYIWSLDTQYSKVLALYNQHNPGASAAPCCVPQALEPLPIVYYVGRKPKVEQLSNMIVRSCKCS
# [3] = biological target: T1, human mature TGFβ2 (PeproTech); experiment: as above; details: both partners purified
# human mature TGFβ3 [4] = biological target: T2, human mature TGFβ3; experiment: as above; details: both partners purified
Binder,"TGFβ inhibition by HEK-Blue cells (IC50: nM), TGFb2; Blocking: Complete [1]","TGFβ inhibition by HEK-Blue cells (IC50: nM), TGFb3; Blocking: Complete (human mature TGFβ3 [2])",Kd (human mature TGFβ1),binding result (human mature TGFβ1),Kd [3],Kd (human mature TGFβ3 [4]),"TGFβ inhibition by HEK-Blue cells (IC50: nM), TGFb2; Blocking: Incomplete [1]","TGFβ inhibition by HEK-Blue cells (IC50: nM), TGFb3; Blocking: Incomplete (human mature TGFβ3 [2])"
B1,0.7 nM,0.1 nM,> 5 nM,no binding (tested: 5 nM),0.0022 nM,0.0006 nM,–,–
B2,1.7 nM,0.7 nM,> 5 nM,no binding (tested: 5 nM),0.0034 nM,0.0055 nM,–,–
B3,1.7 nM,0.3 nM,> 5 nM,no binding (tested: 5 nM),0.0019 nM,0.0005 nM,–,–
B4,2.2 nM,0.2 nM,> 5 nM,no binding (tested: 5 nM),0.0014 nM,0.0006 nM,–,–
B5,2.2 nM,0.4 nM,> 5 nM,no binding (tested: 5 nM),0.0045 nM,0.006 nM,–,–
B6,0.7 nM,0.1 nM,> 5 nM,no binding (tested: 5 nM),0.0017 nM,0.0006 nM,–,–
B7,–,–,> 5 nM,no binding (tested: 5 nM),0.0107 nM,0.0405 nM,> 667 nM,> 667 nM
B8,–,–,> 5 nM,no binding (tested: 5 nM),0.0056 nM,0.0072 nM,> 667 nM,> 667 nM
B9,–,–,> 5 nM,no binding (tested: 5 nM),0.0097 nM,0.0156 nM,> 667 nM,> 667 nM
B10,–,–,> 5 nM,no binding (tested: 5 nM),0.0096 nM,0.0228 nM,> 667 nM,> 667 nM
B11,–,–,> 5 nM,no binding (tested: 5 nM),0.0112 nM,0.0188 nM,> 667 nM,> 667 nM
B12,–,–,> 5 nM,no binding (tested: 5 nM),0.0057 nM,0.008 nM,> 667 nM,> 667 nM
